# Data as given in US20210047402A1 (TENEOBIO, published 2021).
# T1: human CD22 (human, UniProt P20273 20-687, limits assumed)
# T1 construct: also called SIGLEC-2; human CD22 protein
# T1 sequence (looked up): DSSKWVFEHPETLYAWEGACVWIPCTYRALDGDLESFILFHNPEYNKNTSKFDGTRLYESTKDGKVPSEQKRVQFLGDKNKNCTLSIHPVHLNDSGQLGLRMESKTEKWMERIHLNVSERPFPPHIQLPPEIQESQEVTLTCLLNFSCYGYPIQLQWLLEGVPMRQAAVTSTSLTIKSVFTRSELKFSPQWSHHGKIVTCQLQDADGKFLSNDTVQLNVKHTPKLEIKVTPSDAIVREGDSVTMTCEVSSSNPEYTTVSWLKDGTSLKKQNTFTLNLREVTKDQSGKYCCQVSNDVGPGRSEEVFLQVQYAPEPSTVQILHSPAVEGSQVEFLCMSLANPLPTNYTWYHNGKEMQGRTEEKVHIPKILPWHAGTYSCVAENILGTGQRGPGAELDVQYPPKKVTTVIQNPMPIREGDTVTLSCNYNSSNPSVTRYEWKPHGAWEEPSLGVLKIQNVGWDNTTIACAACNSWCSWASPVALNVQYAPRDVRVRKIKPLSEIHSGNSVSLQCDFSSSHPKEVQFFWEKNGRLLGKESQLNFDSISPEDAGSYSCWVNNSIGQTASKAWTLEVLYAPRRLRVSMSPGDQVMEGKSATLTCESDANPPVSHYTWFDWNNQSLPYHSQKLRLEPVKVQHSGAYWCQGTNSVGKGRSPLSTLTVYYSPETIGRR
# Target: T1, human CD22
# Assay: ELISA protein and cell-binding assays
row,Binder,binding result
1,"anti-CD22 heavy chain-only antibody Clone ID 335206 (antibody, V domains shown, Heavy chain-only antibody (UniAb), no light chain) VH: QLQLQESGPGLVKPSETLSLTCTVSGDSISSGDYYWGWIRQPPGKGLEWIGHIYYSGATYYNPSLKNRVTISVDTSKNQFSLKLSSVTAADTAVYYCTREDSSNWRSRGQGTLVTVSS",binds
2,"anti-CD22 heavy chain-only antibody Clone ID 335171 (antibody, V domains shown, Heavy chain-only antibody (UniAb), no light chain) VH: QLQLQESGPGLVKPSETLSLTCTVSGGSISSSSYYWGWIRQPPGKGLEWIGSIYYSGATYYNPSLKNRVTISVDTSRNQFSLNLSSVTAADTAVYYCTRDDSSNWRSRGQGTLVTVSS",binds
3,"anti-CD22 heavy chain-only antibody Clone ID 335188 (antibody, V domains shown, Heavy chain-only antibody (UniAb), no light chain) VH: QLQLQESGPGLVKPSETLSLTCTVSGGSISSSSYYWGWIRQPPGKGLEWIGHIYYSGVTYYNPSLKNRVTISVDTSKNQFSLKLSSVTAADTAVYYCTRDDSSNWRSRGQGTLVTVSS",binds
4,"anti-CD22 heavy chain-only antibody Clone ID 335166 (antibody, V domains shown, Heavy chain-only antibody (UniAb), no light chain) VH: QLQLQESGPGLVKPSETLSLTCTVSGGSISSSSYYWGWIRQPPGKGLEWIGSIYYSGSTYYNPSLKNRVTISVDTSRNQFSLNLSSVTAADTAVYYCTRDDSSNWRSRGQGTLVTVSS",binds
5,"anti-CD22 heavy chain-only antibody Clone ID 335159 (antibody, V domains shown, Heavy chain-only antibody (UniAb), no light chain) VH: QLQLQESGPGLVKPSETLSLTCTVSGGSISSSSYYWGWIRQPPGKGLEWIGHIYYSGVTYYNPSLKNRVTISVDTSKNQFSLKLSSVTAADTAAYYCTRDDSSNWRSRGQGTLVTVSS",binds
6,"anti-CD22 heavy chain-only antibody Clone ID 335158 (antibody, V domains shown, Heavy chain-only antibody (UniAb), no light chain) VH: QLQLQESGPGLVKPSETLSLTCTVSGGSISSGDYYWGWIRQPPGKGLEWIGHIYYSGATYYNPSLKNRVTISVDTSRNQFSLKLSSVTAADTAVYYCTRDDSSNWRSRGQGTLVTVSS",binds
7,"anti-CD22 heavy chain-only antibody Clone ID 335181 (antibody, V domains shown, Heavy chain-only antibody (UniAb), no light chain) VH: QLQLQESGPGLVKPSETLSLTCTVSGDSISSGGYYWGWIRQPPGKGLEWIGHIYYSGATYYNPSLKNRVTISVDTSKNQFSLKLSSVTAADTAVYYCTRDDSSNWRSRGQGTLVTVSS",binds
8,"anti-CD22 heavy chain-only antibody Clone ID 335162 (antibody, V domains shown, Heavy chain-only antibody (UniAb), no light chain) VH: QLQLQESGPGLVKPSETLSLTCTVSGGSIISSSYYWGWIRQPPGKGLEWIGSIYYSGSAYYHPSLKSRVTISIDTSKNQFSLKLSSVTAADTAVYYCARDDSSNWRSRGQGTLVTVSS",binds
9,"anti-CD22 heavy chain-only antibody Clone ID 335150 (antibody, V domains shown, Heavy chain-only antibody (UniAb), no light chain) VH: QLQLQESGPGLVKPSETLSLTCTVSGDSISSGDYYWGWIRQSPEKGLEWIGHIYYSGVTYYNPSLKNRVTISVDTSKNQFSLKLSSVTAADTAVYYCKRDDSSNWRSRGQGTLVTVSS",binds
10,"anti-CD22 heavy chain-only antibody Clone ID 324508 (antibody, V domains shown, Heavy chain-only antibody (UniAb), no light chain) VH: QLQLQESGPGLVKPSETLSLTCTVSGGSISSGDYYWGWIRQPPGKGLEWIGHIYYSGATYYNPSLENRVTISVDTSKNQFSLKLSSVTAADTAVYYCTRDDSSNWRSRGQGTLVTVSS",binds
11,"anti-CD22 heavy chain-only antibody Clone ID 335160 (antibody, V domains shown, Heavy chain-only antibody (UniAb), no light chain) VH: QLQLQESGPGLVKPSETLSLTCTVSGDSISSGDYYWGWIRQPPGKGLEWIGSIYYSGATYYNPSLKNRVTISVDTSKNQFSLKLSSVTAADTAVYYCTRDDSSNWRSRGQGTLVTVSS",binds
12,"anti-CD22 heavy chain-only antibody Clone ID 335170 (antibody, V domains shown, Heavy chain-only antibody (UniAb), no light chain) VH: QLQLQESGPGLVKPSETLSLTCTVSGDSISSGDYYWGWIRQPPGKGLEWIGHIYYSGATYYNPSLKNRVTISVDTSRNQFSLKLSSVTAADTAVYYCTRDDSSNWRSRGQGTLVTVSS",binds

# Now from value to binder:
row,binding result,Binder
1,binds,"anti-CD22 heavy chain-only antibody Clone ID 335161 (antibody, V domains shown, Heavy chain-only antibody (UniAb), no light chain) VH: QLQLQESGPGLVKPSETLSLTCTVSGDSISSGDYYWGWIRQPPGKGLEWIGHIYYSGATYYNPSLENRVTISVDTSKNQFSLKLSSVTAADTAVYYCTRDDSSNWRSRGQGTLVTVSS"
2,binds,"anti-CD22 heavy chain-only antibody Clone ID 335187 (antibody, V domains shown, Heavy chain-only antibody (UniAb), no light chain) VH: QLQLQESGPGLVKPSETLSLTCTVSGGSISSSSYYWGWIRQPPGKGLEWIGHIYYSGATYYNPSLKNRVTISVDTSKNQFSLKLSSVTAADTAVYYCTRDDSSNWRSRGQGTLVTVSS"
3,binds,"anti-CD22 heavy chain-only antibody Clone ID 335176 (antibody, V domains shown, Heavy chain-only antibody (UniAb), no light chain) VH: QLQLQESGPGLVKPSETLSLTCTVSGDSISSGDYYWGWIRQPPGKGLEWIGHIYYSGATYYNPSLKNRVTISVDTSKNQFSLKLSSVTAADTAVYYCTRDDSSNWRSRGQGTLVTVSS"
4,binds,"anti-CD22 heavy chain-only antibody Clone ID 335185 (antibody, V domains shown, Heavy chain-only antibody (UniAb), no light chain) VH: QLQLQESGPGLVKPSETLSLTCTVSGDSISSGDYYWGWIRQPPGKGLEWIGHIYYSGATYYNPSLKNRVTISVDTSRNQFSLNLSSVTAADTAVYYCTREDSSNWRSRGQGTLVTVSS"
5,binds,"anti-CD22 heavy chain-only antibody Clone ID 335151 (antibody, V domains shown, Heavy chain-only antibody (UniAb), no light chain) VH: QLQLQESGPGLVKPSETLSLTCTVSGDSISSGDYYWGWIRQPPGKGLEWIGHIYYSGATYYNPSLKNRVTISVDTSRNQFSLNLSSVTAADTAVYYCTRDDSSNWRSRGQGTLVTVSS"
6,binds,"anti-CD22 heavy chain-only antibody Clone ID 335182 (antibody, V domains shown, Heavy chain-only antibody (UniAb), no light chain) VH: QLQLQESGPGLVKPSETLSLTCTVSGDSISSGDYYWGWIRQPPGKGLEWIGNIYYSGATYYNPSLKNRVTISVDTSKNQFSLKLSSVTAADTAVYYCTRDDSSNWRSRGQGTLVTVSS"
7,binds,"anti-CD22 heavy chain-only antibody Clone ID 335195 (antibody, V domains shown, Heavy chain-only antibody (UniAb), no light chain) VH: QLQLQESGPGLVKPSETLSLTCTVSGGSISSSSYYWGWIRQPPGKGLEWIGSIYYSGATYYNPSLKNRVTISVDTSRNQFSLNLSSVTAADTAMYYCTREDSSNWRSRGQGTLVTVSS"
8,binds,"anti-CD22 heavy chain-only antibody Clone ID 335173 (antibody, V domains shown, Heavy chain-only antibody (UniAb), no light chain) VH: QLQLQESGPGLVKPSETLSLTCTVSGGSITSSSYYWGWIRQPPGKGLEWIGSIYYSGSTYYNPSLKSRVTISVDTSKNQFSLKLSSVTAADTAVYYCTRDDSSNWRSRGQGTLVTVSS"
9,binds,"anti-CD22 heavy chain-only antibody Clone ID 335186 (antibody, V domains shown, Heavy chain-only antibody (UniAb), no light chain) VH: QLQLQESGPGLVKPSETLSLTCTVSGGSISSSSYYWGWIRQPPGKGLEWIGSIYYSGSTYYNPSLKSRVTISVDTSKNQFSLKLSSVTAADTAVYYCTRDDSSNWRSRGQGTLVTVSS"
10,binds,"anti-CD22 heavy chain-only antibody Clone ID 335189 (antibody, V domains shown, Heavy chain-only antibody (UniAb), no light chain) VH: QLQLQESGPGLVKPSETLSLTCTVSGGSISSSSYYWGWIRQPPGKGLEWIGSVYYTGATYYNPSLKNRVTISVDTSKNQFSLKLSSVTAADTAVYYCTRDDSSNWRSRGQGTLVTVSS"
11,binds,"anti-CD22 heavy chain-only antibody Clone ID 335201 (antibody, V domains shown, Heavy chain-only antibody (UniAb), no light chain) VH: QLQLQESGPGLVKPSETLSLTCTVSGDSISSGDYYWGWIRQPPGKGLEWIGHIYYSGVTYYNPSLKNRVTISVDTSRNQFSLKLSSVTAADTAVYYCTREDSSNWRSRGQGTLVTVSS"
12,binds,"anti-CD22 heavy chain-only antibody Clone ID 335154 (antibody, V domains shown, Heavy chain-only antibody (UniAb), no light chain) VH: QLQLQESGPGLVKPSETLSLTCTVSGDSISSGDYYWGWIRQPPGKGLEWIGHIYYSGVTYYNPSLKNRVTISVDTSKNQFSLKLSSVTAADTAVYYCTRDDSSNWRSRGQGTLVTVSS"
